The results in this text go back to paper PMC11008601, “Motor properties of Myosin 5c are modulated by tropomyosin isoforms and inhibited by pentabromopseudilin” (Frontiers in Physiology, 2024).

Assay [1] addresses F–actin (bare actin filaments) (not stated (human β–actin or chicken α–skeletal actin prepared)) (UniProt P60709).
The target of assay [2] is cofilaments of actin and Tpm3.1 (not stated (human β–actin or chicken α–skeletal actin prepared) | human) (UniProt P60709).
For assay [3], the target named is cofilaments of actin and Tpm1.6 (not stated (human β–actin or chicken α–skeletal actin prepared) | human) (UniProt P60709).
Assay [4] deals with cofilaments of actin and Tpm1.8 (not stated (human β–actin or chicken α–skeletal actin prepared) | human) (UniProt P60709).
The target in assay [5] is Myo5c–HMM heavy chain (human Myo5c, amino acids 1–1108, C-terminal Flag) (human) (UniProt Q9NQX4). Briefly: co-purification on anti-FLAG affinity resin, Coomassie gel and immunoblot; Myo5c–HMM-Flag co-produced with CaM alone in Sf9; lysate on anti-FLAG-M2 resin 2 h at 4°C, washed with 500 mM NaCl and 2 mM ATP, then 100 mM NaCl, eluted with FLAG peptide; blot with anti-Flag and anti-CaM; ratio from the gel. Background: Immunoblotting shows a protein as a band on a membrane.

Assay [6] shares this target. Description: co-purification on anti-FLAG affinity resin, Coomassie gel and immunoblot; Myo5c–HMM-Flag co-produced with CaM, RLC (Myl12b) and ELC (Myl6) in Sf9; lysate on anti-FLAG-M2 resin 2 h at 4°C, washed with 500 mM NaCl and 2 mM ATP, then 100 mM NaCl, eluted with FLAG peptide; blot with anti-Myl12b, anti-CaM, anti-Myl6; ratios from the Coomassie-stained gel.
The next assay addresses T1, Myo5c–HMM (Homo sapiens, UniProt Q9NQX4).
T1 construct: heavy meromyosin fragment, residues 1-1108 (motor domain, six IQ motifs, coiled coil), C-terminal Flag tag, co-produced with light chains in baculovirus/Sf9, anti-FLAG purification; dimer; six CaM per heavy chain when co-produced with CaM only; with Calmodulin-1
Briefly: NADH-coupled steady-state actin-activated ATPase assay, dose-response fit. Format: biochemical.

Assay [7] deals with T2, Myo5c–HMM heavy chain (human Myo5c, amino acids 1–1108, C-terminal Flag) (human, UniProt Q9NQX4 1-1108).
T2 construct: human myosin 5c (Myo5c) heavy chain, amino acids 1-1108 (motor domain, neck with IQ motifs, part of the coiled coil), Uniprot-ID Q9NQX4; Cloned in pFastBac Dual under the polyhedrin promotor; also called heavy meromyosin fragment of the Myo5c heavy chain; source: baculovirus/Sf9, co-produced with light chains; not shown: Flag, C-terminal, kept
Description: co-purification on anti-FLAG affinity resin, Coomassie gel and immunoblot; Myo5c–HMM-Flag co-produced with CaM, RLC (Myl12b) and ELC (Myl6) in Sf9; lysate on anti-FLAG-M2 resin 2 h at 4°C, washed with 500 mM NaCl and 2 mM ATP, then 100 mM NaCl, eluted with FLAG peptide; blot with anti-Myl12b, anti-CaM, anti-Myl6; ratios from the Coomassie-stained gel. To be noted: partners not purified.

One may read the IC50 as the midpoint of a concentration-inhibition curve. The low end stands for inhibition by little substance, the high end for a need for much substance.

Sequence of Myo5c–HMM heavy chain (human Myo5c, amino acids 1–1108, C-terminal Flag) (human) (Q9NQX4 1-1108): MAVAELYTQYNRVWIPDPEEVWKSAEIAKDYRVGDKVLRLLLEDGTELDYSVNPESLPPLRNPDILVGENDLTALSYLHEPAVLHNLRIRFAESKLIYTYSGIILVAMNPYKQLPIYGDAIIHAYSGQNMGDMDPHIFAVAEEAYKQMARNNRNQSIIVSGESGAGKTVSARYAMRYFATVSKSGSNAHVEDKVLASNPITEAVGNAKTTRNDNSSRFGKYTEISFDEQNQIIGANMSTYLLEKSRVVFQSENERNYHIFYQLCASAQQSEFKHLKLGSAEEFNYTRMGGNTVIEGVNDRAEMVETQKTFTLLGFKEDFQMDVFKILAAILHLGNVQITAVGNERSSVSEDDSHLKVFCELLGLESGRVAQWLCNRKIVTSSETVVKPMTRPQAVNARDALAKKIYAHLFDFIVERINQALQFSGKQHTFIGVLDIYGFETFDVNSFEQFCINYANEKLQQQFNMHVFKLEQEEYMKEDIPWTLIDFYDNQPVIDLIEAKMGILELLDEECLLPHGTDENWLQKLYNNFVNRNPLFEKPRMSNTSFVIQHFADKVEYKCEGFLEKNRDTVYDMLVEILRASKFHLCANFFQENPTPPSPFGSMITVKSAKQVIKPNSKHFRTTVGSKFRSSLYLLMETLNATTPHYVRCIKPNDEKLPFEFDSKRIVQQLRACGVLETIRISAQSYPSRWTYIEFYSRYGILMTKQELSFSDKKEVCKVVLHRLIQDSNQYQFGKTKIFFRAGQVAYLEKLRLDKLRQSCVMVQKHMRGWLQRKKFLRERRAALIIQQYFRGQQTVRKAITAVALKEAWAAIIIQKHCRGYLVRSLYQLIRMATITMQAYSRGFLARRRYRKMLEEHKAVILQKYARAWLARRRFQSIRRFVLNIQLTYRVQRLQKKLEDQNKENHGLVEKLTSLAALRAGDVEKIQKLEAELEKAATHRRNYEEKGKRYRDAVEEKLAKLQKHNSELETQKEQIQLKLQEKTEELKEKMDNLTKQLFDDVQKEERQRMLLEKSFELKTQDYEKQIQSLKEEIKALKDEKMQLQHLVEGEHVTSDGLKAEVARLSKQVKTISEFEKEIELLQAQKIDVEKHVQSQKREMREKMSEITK
T2 sequence (Q9NQX4 1-1108): as above
T1 sequence (Q9NQX4 1-1108): as above

Regarding “Myo5c–HMM (CaM): Myo5c–HMM heavy chain co-produced and co-purified with calmodulin (from UniProt Q9NQX4 1-1108; P0DP23 1-149) (complex)”, the K (app actin) of the steady-state actin-activated ATPase (NADH-coupled assay, 30°C, 0.15 µM myosin), bare actin in assay [1] worked out at 5.7 µM. Also, in assay [2], the K (app actin) of the steady-state actin-activated ATPase (NADH-coupled assay, 30°C, 0.15 µM myosin), actin–Tpm3.1 cofilaments came to 5.54 µM. In assay [3], this molecule yielded a K (app actin) of the steady-state actin-activated ATPase (NADH-coupled assay, 30°C, 0.15 µM myosin), actin–Tpm1.6 cofilaments of 2.31 µM. In assay [4], this molecule displayed a K (app actin) of the steady-state actin-activated ATPase (NADH-coupled assay, 30°C, 0.15 µM myosin), actin–Tpm1.8 cofilaments of 3.24 µM.

“calmodulin (CaM) (from UniProt P0DP23 1-149) (natural protein)”: in assay [5], the stoichiometry N (CaM per heavy chain) amounted to 6. For the same molecule, in assay [6], the stoichiometry N (light chain:heavy chain) came out at 2.

Molecule `Oc1c(Br)cc(Br)cc1-c1[nH]c(Br)c(Br)c1Br` [PBP, 2,3,4–tribromo–5–(3,5–dibromo–2–hydroxyphenyl)–1H–pyrrole] registered an IC50 at Myo5c–HMM of 280 ± 60 nM.

B1: essential light chain Myl6 (natural protein, human (from the printed UniProt entry), UniProt P60660 1-151, looked up)
chain: MCDFTEDQTAEFKEAFQLFDRTGDGKILYSQCGDVMRALGQNPTNAEVLKVLGNPKSDEMNVKVLDFEHFLPMLQTVAKNKDQGTYEDYVEGLRVFDKEGNGTVMGAEIRHVLVTLGEKMTEEEVEMLVAGHEDSNGCINYEAFVRHILSG
notes: myosin essential light chain Myl6, Uniprot-ID P60660 (a human entry); the vector was prepared as in Reindl et al., 2022; also called ELC; source: baculovirus/Sf9, co-produced with Myo5c–HMM, CaM and Myl12b
For the molecule B1, the “stoichiometry N” value in assay [7] was ~1 light chain:heavy chain.

B2: regulatory light chain Myl12b (natural protein, human (from the printed UniProt entry), UniProt O14950 1-172, looked up)
chain: MSSKKAKTKTTKKRPQRATSNVFAMFDQSQIQEFKEAFNMIDQNRDGFIDKEDLHDMLASLGKNPTDAYLDAMMNEAPGPINFTMFLTMFGEKLNGTDPEDVIRNAFACFDEEATGTIQEDYLRELLTTMGDRFTDEEVDELYREAPIDKKGNFNYIEFTRILKHGAKDKDD
notes: myosin regulatory light chain 12B (Myl12b), Uniprot-ID O14950 (a human entry); the vector was prepared as in Reindl et al., 2022; also called RLC; source: baculovirus/Sf9, co-produced with Myo5c–HMM, CaM and Myl6
As for B2, in assay [7], the “stoichiometry N” value was ~3 light chain:heavy chain.
